From US20100183614A1

B1: IgVL2-t 2E6 (protein)
chain: QSALTQPASVSGSPGQSITISCTGTSSDVGGYNYVSWYQQHPGKAPKLMISEVSNRPSGVSNRFSGSKSGNTASLTISGPQTEDEADYYCSSYTSSSTPVVFGGGTQLTVLGSSGGGGSGGGGSGGSALDIQLTQSPSSLPASVGDRVTITCRASQSISSYLNWYQQKPGKAPKLLIYAASSLQSGVPSRFSGSGSGTDFTLTISSLQPEDFATYYCQQSYSTHTFGQGTKLEIKRAAAHHHHHHGAAEQKLISEEDLNGAA
B2: scFv JL427 (scFv)
scFv: QSVLTQPPSVSGAPGQRVTISCSGSSSNFGLNYVYWYQHFPGTAPKLLIYRNDQRPLGVPARFSGSKSGTSASLAISGLRSEDEADYYCQSYDNSLSGWVFGGGTQLTVLGSSGGGGSGGGGSGGSALQVQLQQSGGGLVQPGRSLRLSCAASGFTFSSYGMHWVRQAPGKGLEWVSYIGRSGSHTNYADSVKGRFTISRDNSKNTLYLQINSLRAEDTAVYYCARGLPNYGMDIWGQGTTVTVSSGSASAPTLFPAAAHHHHHHGAAEQKLISEEDLNGAA

Columns and labels:
Test in all cases: cell-based or functional assay
amyloid β peptide Aβ1-40 = amyloid β peptide Aβ1-40 (UniProt P05067)
[1] = molecular target: Efb (S. aureus virulence factor) (Staphylococcus aureus) (UniProt A6QG59)
Chain of Efb (S. aureus virulence factor) (Staphylococcus aureus) (A6QG59 30-165 limits assumed): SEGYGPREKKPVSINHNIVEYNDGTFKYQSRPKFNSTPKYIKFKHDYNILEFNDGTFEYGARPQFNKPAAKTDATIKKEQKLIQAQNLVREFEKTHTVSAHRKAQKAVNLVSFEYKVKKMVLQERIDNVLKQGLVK

[2] = molecular target: gp120 of clade A HIV strains

Binder | 125I-Aβ1-40 hydrolyzing activity, specific activity, preparation AEQ (fmol/h/mg protein) (amyloid β peptide Aβ1-40) | 125I-Aβ1-40 hydrolyzing activity, specific activity, preparation MA1 (fmol/h/mg protein) (amyloid β peptide Aβ1-40) | 125I-Aβ1-40 hydrolyzing activity, specific activity, preparation MA2 (fmol/h/mg protein) (amyloid β peptide Aβ1-40) | 125I-Aβ40 hydrolysis, activity in the absence of a competitor peptide (amyloid β peptide Aβ1-40) [cpm/hour] | Km (amyloid β peptide Aβ1-40) [µM] | kcat (amyloid β peptide Aβ1-40) [s⁻¹] | kcat/Km (amyloid β peptide Aβ1-40) [M⁻¹ s⁻¹] | % Bt-Efb cleavage [1] [%] | HIV neutralization IC50 [2] [µg/mL]
B1 | 1160 | 380 | 368 | 2590 | 80 | 0.005 | 61.7 | > 20 | –
B2 | – | – | – | – | – | – | – | – | 0.2
